The test system of series [1] is 33-mer immunodominant gluten (gliadin) peptide. The series can be described thus: SPR. The conditions noted are these: RT (electrochemistry), pH 7.4, PSA-1, B4 and truncations: 1x PBS (10 mM phosphate, 154 mM NaCl), 24nt variants: 10 mM Tris-HCl, 150 mM NaCl, 5 mM KCl.
The test system is the same in series [2]. The series can be described thus: chronoamperometry. The conditions noted are these: RT (electrochemistry), pH 7.4, PSA-1, B4 and truncations: 1x PBS (10 mM phosphate, 154 mM NaCl), 24nt variants: 10 mM Tris-HCl, 150 mM NaCl, 5 mM KCl.
The subject of series [3] is collagen XI 10-mer peptide (non-helical C-telopeptide fragment). The series can be described thus: chronoamperometry (magnetic beads). The conditions noted are these: RT (electrochemistry), pH 7.4, PSA-1, B4 and truncations: 1x PBS (10 mM phosphate, 154 mM NaCl), 24nt variants: 10 mM Tris-HCl, 150 mM NaCl, 5 mM KCl.
Series [4] concerns the target T1, prostate specific antigen (PSA) (human, UniProt P07288 25-261). The series can be described thus: SPR; 5 mM MgCl2; RT (electrochemistry), pH 7.4; PSA-1, B4 and truncations: 1x PBS (10 mM phosphate, 154 mM NaCl); 24nt variants: 10 mM Tris-HCl, 150 mM NaCl, 5 mM KCl, 5 mM MgCl2; Gli1 series: 50 mM Tris-HCl, 250 mM NaCl, 5 mM MgCl2. Particulars: protein: native; label: 5' 6FAM; hairpin. On the technique in general: Surface plasmon resonance follows binding to a sensor surface in real time, without labels.

The target of series [5] is T1, prostate specific antigen (PSA). The series can be described thus: chronoamperometry; 5 mM MgCl2; RT (electrochemistry), pH 7.4; PSA-1, B4 and truncations: 1x PBS (10 mM phosphate, 154 mM NaCl); 24nt variants: 10 mM Tris-HCl, 150 mM NaCl, 5 mM KCl, 5 mM MgCl2; Gli1 series: 50 mM Tris-HCl, 250 mM NaCl, 5 mM MgCl2. Particulars: protein: native; label: 5' 6FAM; hairpin.

The target is the same in series [6]. The series can be described thus: SPR; RT (electrochemistry), pH 7.4; PSA-1, B4 and truncations: 1x PBS (10 mM phosphate, 154 mM NaCl); 24nt variants: 10 mM Tris-HCl, 150 mM NaCl, 5 mM KCl, 5 mM MgCl2; Gli1 series: 50 mM Tris-HCl, 250 mM NaCl, 5 mM MgCl2. Particulars: protein: native; label: 5' 6FAM.
Series [7] shares this target. The series can be described thus: chronoamperometry; RT (electrochemistry), pH 7.4; PSA-1, B4 and truncations: 1x PBS (10 mM phosphate, 154 mM NaCl); 24nt variants: 10 mM Tris-HCl, 150 mM NaCl, 5 mM KCl, 5 mM MgCl2; Gli1 series: 50 mM Tris-HCl, 250 mM NaCl, 5 mM MgCl2. Particulars: protein: native; label: 5' 6FAM.

T1 sequence (P07288 25-261): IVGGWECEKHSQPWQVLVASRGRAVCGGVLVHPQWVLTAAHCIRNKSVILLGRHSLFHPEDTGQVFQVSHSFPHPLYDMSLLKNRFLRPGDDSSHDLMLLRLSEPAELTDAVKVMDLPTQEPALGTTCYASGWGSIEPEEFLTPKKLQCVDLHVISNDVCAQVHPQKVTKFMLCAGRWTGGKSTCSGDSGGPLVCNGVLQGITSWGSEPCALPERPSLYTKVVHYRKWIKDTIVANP

As a reminder, the Kd is the free concentration of one partner at which half of the binding sites on the other are occupied at equilibrium, for simple one-to-one binding. Read a high Kd as weaker binding. Regarding “CTAGGCGAAATATAGCTACAACTGTCTGA [Gli1T(1-29)]”, the equilibrium dissociation constant (Kd) in series [1] amounted to 71 nM; in series [2], 86 nM. “TTTTTGACGCAAGAAATTCAGGGCACCTGGAACGACGCGTCGGCT [B4]” came in with a Kd in series [3] of 147 nM. In other words, the sub-micromolar range. Regarding “TTTTTATTCAGGGCACCTGGAACGACGCGTCGGCT [B4T(11-40)]”, in series [3], the Kd is 44 nM.

Consider “CTAGGCGAAATATAGCTACAACTGTCTGAAGGCACCCAAT [Gli1]”, for which the dissociation constant (Kd) in series [1] was found to be 155 nM; in series [2], 136 nM. Take TTTTTAATTAAAGCTCGCCATCAAATAGCTTT (ssDNA) [5Ts-24nt-3Ts (deltaPSap4#5)]: the Kd in series [4] was 232 ± 4 nM; in series [5] it was 152 ± 9 nM. Take TTTTTAATTAAAGCTCGCCATCAAATAGC (ssDNA) [5Ts-24nt]: the Kd in series [4] came out at 545 ± 24 nM; in series [5], 460 ± 64 nM. For the molecule TTTTTGGACGGTTGCGCTATATTTAACCAAAAGTCTGGATTAACA (ssDNA) [PSA-1], the equilibrium dissociation constant (Kd) amounted to 125 ± 21 nM in series [6] and 348 ± 58 nM in series [7]. Regarding TTTTTTATTTAACCAAAAGTCTGGATTAACA (ssDNA) [PSA-1T(15-40)], the Kd worked out at 130 ± 25 nM in series [6] and 111 ± 9 nM in series [7].

(Values after paper PMC12261273, “Refinement and Truncation of DNA Aptamers Based on Molecular Dynamics Simulations: Computational Protocol and Experimental Validation”.)
